Data: paper PMC3169552

Assays:
[1] = target: His6-tagged vaccinia virus D13 (native D13) (vaccinia virus, Western Reserve strain); assay: negative-stain electron microscopy
[2] = target: His6-tagged vaccinia virus D13 (native D13) (vaccinia virus, Western Reserve strain); assay: crystal structure

In the case of “His6-tagged vaccinia virus D13 (native D13) (natural protein)”, the stoichiometry N [1] is reported as 3 and the stoichiometry N [2] is reported as 3.
